# US20220119522A1
# Where a chain is given by its changes, count along the chain named.
# T1: human TREM2 full length stalk region peptide (aa 129-172) (human)
# T1 sequence (peptide, biotinylated (site not stated)): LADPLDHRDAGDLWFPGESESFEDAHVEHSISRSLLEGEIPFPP
# T2: human TREM2 truncated stalk peptide (aa 149-163) (human)
# T2 sequence (peptide, biotinylated (site not stated)): SFEDAHVEHSISRSL
# B1: CL0020124 (antibody, V domains shown)
# VH: EVQLQQSGPVLVKPGASVKMSCKPSGYTFTDYYMNWVKQSHGKSLEWIGSINPYTGGSSYNQKFRGKATLTVDKSSSTAYMELNSLTSEDSAVYYCARGSYYSNLGFAYWGQGTLVTVSA
# VL: DVQLTQSPSYLTASPGETITINCRASKSISKYLAWYQEKPGKTNKLLISSGSTLQSGIPSRFSGSGSGTDFTLTISSLEPEDFAMYYCQQYSEYPFTFGSGTKLEIK
# B2: CL0020308 (antibody, V domains shown)
# VH: QVQLKQSGPSLVQPSQSLSITCTVSGFSLTTYGIHWVRQSPGKGLEWLGVIWTGGSTAFNAAFMSRLSITKDNSKSQVFFKMNSLQADDTAIYYCAKVGFHSATDYWGQGTSVTVSS
# VL: DVLMTQTPLSLPVTLGDQASISCRSSQNLVHSNGNTYLEWYLQKPGQSPKLLIYKVSNRFSGVPDRFSGSGSGTDFTLKISRVEAEDLGLYYCFQGSHVPFTFGSGTKLEIK
# B3: CL0020309 (antibody, V domains shown)
# VH: B2 VH with T31S, I34V, H35Q, S56T, A58D, M64K, T90S, V98I, T104V
# VL: B2 VL with T14S, L29I, S81N, V99I, K108Q
# B4: CL0020188 (antibody, V domains shown)
# VH: EVKLLDSGGGLVQAGGSLRLSCAGSGFTFTDFYMSWIRQPPGKAPEWLGVIRNKANGYTAGYNPSVKGRFTISRDNTQNILYLQMNTLRAEDTAIYYCARLTYGFDYWGQGVMVTVSS
# VL: DIVMTQGALPNPVPSGESASITCQSSKSLLHSNGKTYLNWYLQRPGQSPQLLIYWMSTRASGVSDRFSGSGSGTDFTLKISSVEAEDVGVYYCQQFLEYPFTFGSGTKLEIK
# B5: CL0020096 (antibody, V domains shown)
# VH: QIQLVQSGPELRKPGETVKISCKASGYTFTTYGMSWVKQAPGKGLKWMGWINTYSGLPRHSDDFKGRFAFSLETSASTAYLQINNLKNEDTATYFCAREVYYGSRKTAWFAYWGQGTLVTVSA
# VL: DLVMSQSPSSLAVSVGERVTMSCKSSQSLLYSNDQKNYLAWYQQIPGQSPKLLIYWASTRESGVPDRFTGSGSGTDFTLTISSVKAEDLAVYFCQQYYSYPPTFGAGTKLELK
# B6: CL0020141 (antibody, V domains shown)
# VH: EVTLVESGGGLVQPGGSLRLSCATSGFTFTDYYMSWVRQPPGKALEWLGFIRDKANGYTTDYSASVKGRFTISRDNSQNILYLQMNTLRAEDSATYYCSRLLRAQGFAYWGQGTLVTVSA
# VL: DIVMSQSPSSLGVSIGEKVIMSCTSGQSLLYSNNQKNYLAWYQQKPGQSPKLLIYWASTRESGVPDRFTGSGSGTDFTLTINSVKAEDLAVYYCQQYYRNPFTFGSGTKLEIK
# B7: CL0020107 (antibody, V domains shown)
# VH: QVQLQQPGAELVKPGASVKMSCRASGYTFTNYWISWVKQRPGQGLEWIGDIYPHSTSTNYNERFRSKATLTVDKSSTTAYMQLSSLTSEDSAVYYCAREGFGISAWGQGTTLTVSS
# VL: QIVLTQSPAIMSASPGEKVTITCSATSSVSYMHWFQQKPGTSPKLWIYSTSNLASGVPARFSGSGSGTSHSLTISRMEAEDAATYYCQQRSSYPLTFGSGTKLELK
# Target: T1, human TREM2 full length stalk region peptide (aa 129-172) (human)
# Assay: ELISA on biotinylated peptide captured by streptavidin; A450 normalised to isotype control
row,Binder,fold over background (A450)
1,B1,2.1 fold

# Target: T2, human TREM2 truncated stalk peptide (aa 149-163) (human)
# Assay: as above
row,Binder,fold over background (A450)
1,B2,2.5 fold
2,B3,2.2 fold
3,B4,3 fold
4,B5,2.2 fold
5,B6,2.1 fold

# Target: mouse TREM2 truncated stalk peptide (aa 149-163) (mouse) (UniProt Q99NH8)
# Assay: as above
row,Binder,fold over background (A450)
1,B1,1.7 fold
2,B2,1.1 fold
3,B3,1.3 fold
4,B4,0.9 fold
5,B5,1.3 fold
6,B6,1.4 fold
7,B7,1.6 fold
